The results in this text go back to the nanobody polyreactivity screen of Harvey et al. (2022).

The data set can be described thus: yeast display, Sf9 membrane polyspecificity reagent, FACS + sequencing; frameworks hold sequencing errors. Summed up:
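Nanobodies from a synthetic yeast display library (Saccharomyces cerevisiae BJ5465), induced 36–48 hours with galactose, were stained 1 hour at 4 °C with 10% biotinylated, detergent-solubilized Sf9 membrane reagent, enriched on streptavidin microbeads, then FACS-sorted. Anti-HA (expression) and streptavidin (reagent binding) fluorescence set low and high (top ~1%) gates. Polyreactivity labels come from the gate of origin. Genes were colony-PCR amplified, MiSeq 2 × 250 sequenced and filtered by CDR length.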
Turning to “QVQLVESGGGLVQAGGSLRLSCAASGSTFTYYAMGWYRQAPGKERELVAAISSTDSTYYADSVKGRFTISRDNAKNTVYVQMNSLKPEDTAVYYCAAVRFSHSRETRRGYWGQGTQVTVSS”, the “polyreactivity (PSR sort gate)” value is “high polyreactivity”.
The same measure for “QVQLVESGGGLVQAGGSLRLSCAASGSTFTYYAMGWYRQAPGKERELVAAITFRGDSTYYADSVKGRFTISRDNAKNTVYLQMNSLKPEDTAVYYCNADSISSTYYDEDYWGQGTQVTVSS”: “low polyreactivity”; for “QVQLVESGGGLVQAGGSLRLSCAASGSTFTYYAMGWYRQAPGKERELVADISRDGGSTYYADSVKGRFTISRDNAKNTVNLQMNSLKPEDTAVYYCATDMVYKYDYWGQGTQVTVSS”: “low polyreactivity”.
The same measure for “QVQLVESGGGLVQAGGSLRLSCAASGSTFTYYAMGWYRQAPGKERELVASINWSGGSTRYADSVKGRFTISRDNAKNTVYLQMNSLKPEDTAVYYCAARKSPRSQVRGRSYYWGQGTQVTVSS”: “high polyreactivity”.
For “QVQLVESGGGLVQAGGSLRLSCAASGSTFTYYSMGWYRQAPGKERELVDAITGRGGRTYYADSVKGRFTISRDNAKNTVYLQMNSLKPEDTAVYYCARYQSSDTYWTKYDYWGQGTQVTVSS” the value was “high polyreactivity”; for “QVQLVESGGGLVQAGGSLRLSCAASGSTFVDYAMGWYRQAPGKERELVAAISSSGSTNYADSVKGRFTISRDNAKNTVYLQMNSLKPEDTAVYYCNADGNPDFYYSFYDEYDYWGQGTQVTVSS”, “low polyreactivity”.
Take “QVQLVESGGGLVQAGGSLRLSCAASGSTFVGNAMGWYRQAPGKERELVAAITWSGGTYYADSVKGRFTISRDNAKNTVYLQMNSLKPEDTAVYYCNAEWRVYPDLYDYWGQGTQVTVSS”: the “polyreactivity (PSR sort gate)” value was “low polyreactivity”.
For “QVQLVESGGGLVQAGGSLRLSCAASGSTFVGYAMGWYRQAPGKEMEFVAAITRGGSTNYADSVKGRFTISRDNAKNTVYLQMNSLKPEDTAVYYCAARDRREGFIFDYWGQGTQVTVSS” the value was “low polyreactivity”; for “QVQLVESGGGLVQAGGSLRLSCAASGSTFVGYAMGWYRQAPGKERELVAAISGSGTSTYYADSVKGRFTISRDNAKNTVYLQMNSLKPEDTAVYYCNADPIFVYSSYNYWGQGTQVTVSS”, “low polyreactivity”; for “QVQLVESGGGLVQAGGSLRLSCAASGSTFVGYAMGWYRQAPGKERELVADIDSIGGSTYYADSVKGRFTISRDYAKNTVYLQMNSLKPEDTAVYYCAARRFDTALVLYDYWGQGTQVTVSS”, “low polyreactivity”.
As to “QVQLVESGGGLVQAGGSLRLSCAASGSTFVHYAMGWYRQAPGKEREFVASITRSGTSTYYADSVKGRFTISRDNAKNNVYLQMNSLKPEDTAVYYCNAELLGARQYWYYRYYYWGQGTQVTVSS”, the “polyreactivity (PSR sort gate)” value is reported as “high polyreactivity”.
In the case of “QVQLVESGGGLVQAGGSLRLSCAASGSTFVINAMGWYRQAPGKEREFVAAISYSRGITYYADSVKGRFTISRDNAKNYVDLQMNSLKQEDTAVYYCAVSPFENRDSGYDYWGQCTQVTVSS”, the “polyreactivity (PSR sort gate)” value is on record as “low polyreactivity”.
For “QVQLVESGGGLVQAGGSLRLSCAASGSTFVINAMGWYRQAPGKERELVADIDYRGGSTNYADSVKGRFTISRDNAKNTVYLPMNSLKPEDTAVYYCNKRYVIRRRGYDYWGQGTQVTVSS” the value was “low polyreactivity”.
The same measure for “QVQLVESGGGLVQAGGSLRLSCAASGSTFVINAMGWYRQAPGKERELVARISSSGGRTYYADSVKGRFTISRDNAKNTVYLQMNSLKPEDTAVYYCAKRGYLFLRGSVRVGYNYWGHGTQVTVSS”: “low polyreactivity”.
For “QVQLVESGGGLVQAGGSLRLSCAASGSTFVIYAMGWYRQAPGKERELVAAISGRTGSTYYADSVKGRFTISRDNAKNTVYLQMNSLKPEDTAVYYCAAYKRSGLKYGHWGQGTQVTVSS” the value was “high polyreactivity”; for “QVQLVESGGGLVQAGGSLRLSCAASGSTFVIYAMGWYRQAPGKERELVATITSGGSTYYADSVKGRFTISRDNAKNTVYLQMNSLKPEDTAVYYCAADDWGWPFYYYDDPMDYWGQGTQVTVSS”, “high polyreactivity”.
With “QVQLVESGGGLVQAGGSLRLSCAASGSTFVKNAMGWYRQAPGKERELVAAISYRGGRTYYADSVKGRFTISRDNAKNTVYLQMNSLKPEDTAVYYCAADYISVYGYEYYYWGQGTQVTVSS”, the “polyreactivity (PSR sort gate)” value is recorded as “high polyreactivity”.
For “QVQLVESGGGLVQAGGSLRLSCAASGSTFVKNTMGWYRQAPGKERELVAAIRSSGGSTYYADSVKGRFTISRDNAKNTVYLQMNSLKPEDTAVYYCAAPRVSVHGGGYWGQGTQVTVSS” the value was “high polyreactivity”.
As for “QVQLVESGGGLVQAGGSLRLSCAASGSTFVKNVMGWYRQAPGKERELVAGITRGGSTYYADSVKGRFTISRDNAKNTGSLQMNSLKPEDTAVYYCANRYAWDRDYWGQGTQVTVSS”, the “polyreactivity (PSR sort gate)” value is given as “high polyreactivity”.
The same measure for “QVQLVESGGGLVQAGGSLRLSCAASGSTFVKYTMGWYRPAPGKERELVAAIRRRGGSTYYADSVKGRFTISRDNAKNTVYLQMNSLKPEDTAVYYCATAGQGAFWGQGTQVTVSS”: “high polyreactivity”; for “QVQLVESGGGLVQAGGSLRLSCAASGSTFVKYVMGRYRQAPGKERELVAAISRSSVRTYYADSVKGRFTISRDNAKNTVYLQMNSLKPEDTAVYYCAVVLSTYSYADYDYWGQGTLVTVSS”: “high polyreactivity”; for “QVQLVESGGGLVQAGGSLRLSCAASGSTFVLYAMGWYRQAPGKERELVAAIDSSGGSTYYADSVKGRFTISRDNAKNTVYLQMNSLKPEDTAVYYCAKAGRYANLPYGYWGQGTQVTVSS”: “high polyreactivity”.
In the case of “QVQLVESGGGLVQAGGSLRLSCAASGSTFVLYAMGWYRQAPGKERELVAAISTSGGRTYYADSVKGRFTISRDNAKNTVNLQMNSLKPEDTAVYYCAALTYVAQYDEYWGQGTQVTVSS”, the “polyreactivity (PSR sort gate)” value is listed as “low polyreactivity”.
For “QVQLVESGGGLVQAGGSLRLSCAASGSTFVNAMGWYRQAPGKERELVAAISLSGDSTYYADSVKGRFTISRDNAKNTVYLQMNCLKPEDTAVYYCNADGLGGEDPEYLWYPVPDYDYWGQGTQVTVSS” the value was “low polyreactivity”; for “QVQLVESGGGLVQAGGSLRLSCAASGSTFVNNAMGWYRQAPGKERELVAAIRNTGGRTYYADSVKGRFTISRDNAKNTVYLQMNSLKPEDTAVYYCAALSRVRTLWRMDYWGQGSQVTVSS”, “high polyreactivity”; for “QVQLVESGGGLVQAGGSLRLSCAASGSTFVNNAMGWYRQAPGKERELVAAIRSSDGRTYYADSVKGRFTISRDNAKNTVYLLMNSLKPEDTAGYYCNAGYWRFIDSYDYWGQGTQVTVSS”, “high polyreactivity”.
For “QVQLVESGGGLVQAGGSLRLSCAASGSTFVNNAMGWYRQAPGKERELVAAIRSSGGSTYYADSVKGRFTISRDNAKNTVSLQMNSLKPEDTAVYYCNADRWKYELDYWGQGTQVTVSS” the value was “high polyreactivity”; for “QVQLVESGGGLVQAGGSLRLSCAASGSTFVNNVMGWYRQAPGKERELVAAISGRGGNTYYADSVKGRFTISRDNAKNTVYLQMNSLKPEDTAVYYCAPYSWGWSLWTYDYWGQGTQVTVSS”, “high polyreactivity”.
For “QVQLVESGGGLVQAGGSLRLSCAASGSTFVNYAMGWYRQAPGKERELVAAITANGGRTYYADSVKGRFTISRDNAKNTVYLQMNSLKPEDTAVYYCNTESNLYRRRRNYWGQGTQVTVSS” the value was “low polyreactivity”; for “QVQLVESGGGLVQAGGSLRLSCAASGSTFVNYVMGWYRQAPGKERELVAAISRRGTSTRYADSVKGRFTISRDNAKNTVYFQMNSLKPEDTAVYFCAATRYVGVTGYGYWGLGTQVTVSS”, “high polyreactivity”; for “QVQLVESGGGLVQAGGSLRLSCAASGSTFVPNDMGWYRQAPGKERELVAGISSVGGTDADSVKGRFTISRDNAKNTVYLQMNSLKPEDTAVYYCNALHAYYVLTPYDYWGQGTQVTVSS”, “low polyreactivity”.
In the case of “QVQLVESGGGLVQAGGSLRLSCAASGSTFVPYAMGWNRQAPGKERELVASISWRGGSTSYADSVKGRFTISRDNAKNTVYLQMNSLKPEDNAVYYCAARPRYRYKQDYYYWGQGSQVTVSS”, the “polyreactivity (PSR sort gate)” value was “high polyreactivity”.
On to “QVQLVESGGGLVQAGGSLRLSCAASGSTFVPYAMGWYRQAPGKERELVAAISSAGSTNYADSVKGRFTISRDNAKNTVYLQMNSLKPEDTAVYYCARDIQDTYVFDYWGQGTQVTVSS”, for which the “polyreactivity (PSR sort gate)” value is “low polyreactivity”.
For “QVQLVESGGGLVQAGGSLRLSCAASGSTFVPYAMGWYRQAPGKERELVAAITWSGGDSTYYADSVKGRFTISRDNAKNTVYLQMNSLKPEDTAVYYCAASYLGRKYDYWGQGTQVTVSS” the value was “high polyreactivity”.
The same measure for “QVQLVESGGGLVQAGGSLRLSCAASGSTFVPYAMGWYRQAPGKERELVATIRWRGDRTYYADSVKGRFTSSRDNAKKTVYLQMNSLKPEDTAVYYCNTAGWSFYSGRYDYWGQGTQVTVSS”: “high polyreactivity”; for “QVQLVESGGGLVQAGGSLRLSCAASGSTFVPYTMGWYRQAPGKERELVAVISSSGGNTYYADSVKGRFTISRDNAKNTVYLQMNSLKPEDTAVYYCNKDYWYPNYRRYEYWGQGTQVTVSS”: “low polyreactivity”.
In the case of “QVQLVESGGGLVQAGGSLRLSCAASGSTFVQNAMGWYRQAPGNERELVAAISRTGGSTYYADSVKGRFTISRDNAKNTVYLQMNSLKPEDTAVYYCAKRPPNYSWPKIIEFGSWGLGTQVTVSS”, the “polyreactivity (PSR sort gate)” value is recorded as “high polyreactivity”.
For “QVQLVESGGGLVQAGGSLRLSCAASGSTFVRNAMGWYRQAPGKERELVAAITSSGGSTYYADSVKGRFTISRDNAKYSVYLQMNSLKPEDTAVYYCAKRRYYRYDYWGQGTQVTVSS” the value was “low polyreactivity”; for “QVQLVESGGGLVQAGGSLRLSCAASGSTFVRYAKGWYRQAPGKETELVAAISYRGGSTYYADSVKGRFTISRDNAKNTVYLQMNSLKPEDTAVYYCAAESRHVEGEYWGQGTQVTVSS”, “high polyreactivity”; for “QVQLVESGGGLVQAGGSLRLSCAASGSTFVRYAMGWDRQAPGTEGSWVAAISVDGDSTYYADSVKGRFTISRDNAKNTVYFQLNSLKPEDTAVYYCNVPLWDYYPRFPLHDYWGQGTQVTVSA”, “low polyreactivity”.
The same measure for “QVQLVESGGGLVQAGGSLRLSCAASGSTFVRYDMGWYRQAPGKERELVADISWSGVSTYADSVKGRFTISRDNAKNTVYLQMNSLIAEDTAVYYCAKDSDLYQRGGYYWGQGTQVTVSS”: “low polyreactivity”.
